Experiments:
Assay type in all cases: cell-based
[1] = system: E. brevis; experiment: Lectin aggregation of bacterial cells (microtitre wells, semi-quantitative score); parameters: key: Where the addition of lectins did not cause the aggregation of cells, a score of “0” was assigned; Lectins that caused cellular-aggregation to give small flocs in a turbid suspension were given a score of “+”; A score of “++” was given to lectin-cell aggregate mixes that resulted in large aggregates seen by eye in a turbid suspension; Lectins that caused cellular aggregation to give easily visible aggregates in a clear solution were given a score of “+++”; details: cells O.D. 0.5 at 650 nm
Experimental: (§1) Assay approach: Six lectins were chosen to discover their suitability for the aggregation of different species of bacteria. These were Concanavalin A, Lentil lectin, Pseudomonas aeruginosa lectin, peanut lectin, Limulus polyphemus lectin and wheat germ lectin.
(§2) The ability of the lectins to aggregate bacterial cells was studied by mixing cells at an O.D. of 0.5 at 650 nm with different lectins at different concentrations. The extent of aggregation was determined by a semi-quantitative approach. […] Lectins that caused cellular-aggregation to give small flocs in a turbid suspension were given a score of “+”. […] Lectins that caused cellular aggregation to give easily visible aggregates in a clear solution were given a score of “+++”.

[2] = system: E. coli C600 (K12); experiment: as above; parameters: key: Where the addition of lectins did not cause the aggregation of cells, a score of “0” was assigned; Lectins that caused cellular-aggregation to give small flocs in a turbid suspension were given a score of “+”; A score of “++” was given to lectin-cell aggregate mixes that resulted in large aggregates seen by eye in a turbid suspension; Lectins that caused cellular aggregation to give easily visible aggregates in a clear solution were given a score of “+++”; details: cells O.D. 0.5 at 650 nm
Experimental: as §1, §2

[3] = system: P. putida; experiment: as above; parameters: key: Where the addition of lectins did not cause the aggregation of cells, a score of “0” was assigned; Lectins that caused cellular-aggregation to give small flocs in a turbid suspension were given a score of “+”; A score of “++” was given to lectin-cell aggregate mixes that resulted in large aggregates seen by eye in a turbid suspension; Lectins that caused cellular aggregation to give easily visible aggregates in a clear solution were given a score of “+++”; details: cells O.D. 0.5 at 650 nm
Experimental: as §1, §2

[4] = system: K. oxytoca; experiment: as above; parameters: key: Where the addition of lectins did not cause the aggregation of cells, a score of “0” was assigned; Lectins that caused cellular-aggregation to give small flocs in a turbid suspension were given a score of “+”; A score of “++” was given to lectin-cell aggregate mixes that resulted in large aggregates seen by eye in a turbid suspension; Lectins that caused cellular aggregation to give easily visible aggregates in a clear solution were given a score of “+++”; details: cells O.D. 0.5 at 650 nm
Experimental: as §1, §2

[5] = system: Pseudomonas sp. Strain 2881; experiment: Titration of ConA against bacterial suspension, aggregate size measured; details: within 5.0% S.E.
Experimental: Aggregates of different size were constructed by titrating cona against suspensions of bacteria and observing the formation of aggregates. These were visible by eye as well as by optical microscope (FIG. 1).
Aggregate size was measured. A parabolic relationship between the ratio of ConA and bacterial density was observed (Table 3). […] This hypothesis reflects that established for antibody:antigen precipitation reactions.
Within an optimal range of […] and 0.6 mg/ml ConA, bacterial aggregates of 10 to >100 μm diameter could be reproducibly formed with a lectin excess that enabled further bacteria to be sequestered to the surface of the aggregate. The aggregates could be readily disassociated by the addition of approximately 50 mM maltose, glucose or sucrose to ConA, followed by 30s of gentle pipetting. This is ideal for the accurate enumeration of viable bacteria based upon CFU measurement on nutrient agar.

[6] = system: taxonomically distinct species of bacteria; experiment: Lectins tested for potential to construct bacterial aggregates
Excerpt: We have selected the lectin Concanavalin A (ConA) as the most preferred (Sigma, Poole, Dorset, UK). Other lectins tested for their potential in the present invention were Wheat Germ Lectin (WGA), lectin from Limulus polyphemus and Peanut Agglutinin (PNA). […] However, ConA was the only lectin that strongly reacted with, and aggregated, over 15 taxonomically distinct species of bacteria. ConA was subsequently deemed the most preferable for use. However, any lectin is suitable for the invention as long as the lectin is capable of agglutinating the desired species.
as §1, §2

Molecule | extent of aggregation (score) ([1]; lectin 1 × 10^−1 mg/mL) | extent of aggregation (score) ([1]; lectin 1 × 10^−2 mg/mL) | extent of aggregation (score) ([1]; lectin 1 × 10^−3 mg/mL) | extent of aggregation (score) ([2]; lectin 1 × 10^−1 mg/mL) | extent of aggregation (score) ([2]; lectin 1 × 10^−2 mg/mL) | extent of aggregation (score) ([2]; lectin 1 × 10^−3 mg/mL) | extent of aggregation (score) ([3]; lectin 1 × 10^−1 mg/mL) | extent of aggregation (score) ([3]; lectin 1 × 10^−2 mg/mL) | extent of aggregation (score) ([3]; lectin 1 × 10^−3 mg/mL) | extent of aggregation (score) ([4]; lectin 1 × 10^−1 mg/mL) | extent of aggregation (score) ([4]; lectin 1 × 10^−2 mg/mL) | extent of aggregation (score) ([4]; lectin 1 × 10^−3 mg/mL) | also measured
Concanavalin A | + | + | 0 | +++ | +++ | + | +++ | ++ | + | ++ | + | 0 | Size of aggregate ([5]; Amount of ConA 0.001 mg/ml): No aggregation; Size of aggregate ([5]; Amount of ConA 0.01 mg/ml): 11.2 μm; Size of aggregate ([5]; Amount of ConA 0.05 mg/ml): 53.4 μm; Size of aggregate ([5]; Amount of ConA 0.1 mg/ml): 106.7 μm; Size of aggregate ([5]; Amount of ConA 0.2 mg/ml): 91.2 μm; Size of aggregate ([5]; Amount of ConA 0.4 mg/ml): 73.1 μm; Size of aggregate ([5]; Amount of ConA 0.6 mg/ml): 55.4 μm; Size of aggregate ([5]; Amount of ConA 0.8 mg/ml): No aggregation; Size of aggregate ([5]; Amount of ConA 1.0 mg/ml): No aggregation; taxonomically distinct species of bacteria strongly reacted with, and aggregated [6]: over 15
Lentil lectin (protein, UniProt P02870 31-210; P02870 218-269, looked up) Lectin beta chain: TETTSFSITKFSPDQKNLIFQGDGYTTKGKLTLTKAVKSTVGRALYSTPIHIWDRDTGNVANFVTSFTFVIDAPSSYNVADEFTFFIAPVDTKPQTGGGYLGVFNSKEYDKTSQTVAVEFDTFYNAAWDPSNKERHIGIDVNSIKSVNTKSWNLQNGERANVVIAFNAATNVLTVTLTYP Lectin alpha chain: VTSYTLNEVVPLKDVVPEWVRIGFSATTGAEFAAHEVHSWSFHSELGGTSSS | + | 0 | 0 | +++ | ++ | + | +++ | ++ | + | ++ | + | 0 | 

From US20040248275A1, “Engineered bacterial aggregates” (priority 2003, published 2004)
